Assay results as given in paper PMC5030251, “Metal-Induced Stabilization and Activation of Plasmid Replication Initiator RepB” (Frontiers in Molecular Biosciences, 2016).

Biological target: the molecule itself
Test: AUC; sedimentation equilibrium; RepB6 samples heated to temperatures from 25°C up to 45°C (end of the first thermal transition)

B1: RepB, replication initiator protein of the streptococcal plasmid pMV158 (enzyme, UniProt P13921 1-210, looked up)
chain: MAKEKARYFTFLLYPESIPSDWELKLETLGVPMAISPLHDKDKSSIKGQKYKKAHYHVLYIAKNPVTADSVRKKIKLLLGEKSLAMVQVVLNVENMYLYLTHESKDAIAKKKHVYDKADIKLINNFDIDRYVTLDVEEKTELFNVVVSLIRAYTLQNIFDLYDFIDENGETYGLTINLVNEVIAGKTGFMKLLFDGAYQRSKRGTKNEER
notes: RepB, replication initiator (Rep) protein encoded by plasmid pMV158; 210 amino acid polypeptide purified as a hexamer; In assay a2 the protein had been heated beyond its first, irreversible thermal transition (OBD denatured); also called RepB6; full-length hexameric RepB; source: purified as described previously (Ruiz-Masó et al., 2004; Boer et al., 2009)
For B1, the “stoichiometry N” value was about 6.
